The record followed here is the supplement of paper PMC7877785.

This data set is described as follows: self-splicing fitness, log relative to wild type (ln ratio); higher = more splicing; Tetrahymena group I intron in knt gene, E. coli kanamycin selection, DiMSum; sequences stand for … in CUCUCU…GGAGGGAAAAGUUAUCAGGCAUGCACCUGGUAGCUAGUCUUUAAACCAAUAGAUUGCAUCGGUUUAAAAGGCAAGACCGUCAAAUUGCGGGAAAGGGGUCAACAGCCGUUCAGUACCAAGUCUCAGGGGAAACUUUGAGAUGGCCUUGCAAAGGGUAUGGUAAUAAGCUGACGGACAUGGUCCUAACCACGCAGCCAAGUCCUAAGUCAACAGAUCUUCUGUUGAUAUGGAUGCAGUUCACAGACUAAAUGUCGGUCGGGGAAGAUGUAUUCUUCUCAUAAGAUAUAGUCGGACCUCUCCUUAAUGGGAGCUAGCGGAUGAAGUGAUGCAACACUGGAGCCGCUGGGAACUAAUUUGUAUGCGAAAGUAUAUUGAUUAGUUUUGGAGUACUCGUGGUCG
An outline of the steps:
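Fitness was computed with DiMSum as the error-weighted combination of replicate fold changes, kanamycin versus none, each normalised to wild type. The library randomised all eight intron nucleotides of the P1ex region, with the intron placed in the knt kanamycin-resistance gene on pET-22b(+) in E. coli BL21(DE3). Six replicate transformations were grown overnight at 37°C or 30°C on LB agar with or without 25 μg/mL kanamycin, plus 100 μg/mL carbenicillin, 50 μM IPTG and 0.2% rhamnose. Pooled colonies were amplicon-sequenced on an Illumina HiSeq 2500.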

± gives the uncertainty stated by the source.

With AUUGAGCAAUAUUACGCAGC, the “self-splicing fitness (ln)” value reads like this: (30 °C) -1.85 ± 0.29; (37 °C) -2.7 ± 0.38.
Taken in the same sequence, the figures for AUUGAGCAAUAUUACGCCCA were -2.25 ± 0.25 and -1.39 ± 0.39.
Take AUUGAGCAAUAUUACGCCUA: the “self-splicing fitness (ln)” value (30 °C) was -1.99 ± 0.2 and the “self-splicing fitness (ln)” value (37 °C) is -1.52 ± 0.2.
Taken in the same sequence, the figures for AUUGAGCAAUAUUACGCCUC were -2.53 ± 0.48 and -1.27 ± 0.42.
For the sequence AUUGAGCAAUAUUACGCGGU, under “30 °C”, the “self-splicing fitness (ln)” value was -2.19 ± 0.19.
With AUUGAGCAAUAUUACGCGUC, the “self-splicing fitness (ln)” value reads like this: (30 °C) -3.26 ± 0.19; (37 °C) -1.73 ± 0.2.
Regarding AUUGAGCAAUAUUACGGCGG, the “self-splicing fitness (ln)” value runs as follows: (30 °C) -3.01 ± 0.19; (37 °C) -1.05 ± 0.38.
Taken in the same sequence, the figures for AUUGAGCAAUAUUACGUAAC were -1.3 ± 0.3 and -1.53 ± 0.31.
Taken in the same sequence, the figures for AUUGAGCAAUAUUACGUGGU were -3.28 ± 0.21 and -3.12 ± 0.43.
Taken in the same sequence, the figures for AUUGAGCAAUAUUACGUUAU were -2.61 ± 0.2 and -1.86 ± 0.24.
Consider AUUGAGCAAUAUUACGUUGG, for which the “self-splicing fitness (ln)” value is, setting by setting: (30 °C) -3.62 ± 0.36; (37 °C) -0.682 ± 0.17.
With AUUUAGCAAUAUUACGAAGU, the “self-splicing fitness (ln)” value runs as follows: (30 °C) -1.91 ± 0.23; (37 °C) -1.24 ± 0.18.
Taken in the same sequence, the figures for AUUUAGCAAUAUUACGACCU were 0.0405 ± 0.29 and 0.114 ± 0.29.
Taken in the same sequence, the figures for AUUUAGCAAUAUUACGACGA were -0.672 ± 0.15 and 0.131 ± 0.18.
Turning to AUUUAGCAAUAUUACGACUA, the “self-splicing fitness (ln)” value was -0.0865 ± 0.18 (30 °C) and -0.454 ± 0.15 (37 °C).
Taken in the same sequence, the figures for AUUUAGCAAUAUUACGAGAU were -3.55 ± 0.4 and -1.41 ± 0.28.
As for AUUUAGCAAUAUUACGAGGA, the “self-splicing fitness (ln)” value was -2.7 ± 0.49 (30 °C) and -2.18 ± 0.4 (37 °C).
Taken in the same sequence, the figures for AUUUAGCAAUAUUACGAUCU were 0.177 ± 0.13 and 0.0446 ± 0.11.
With AUUUAGCAAUAUUACGAUUC, the “self-splicing fitness (ln)” value was -1.73 ± 0.22 (30 °C) and -0.798 ± 0.26 (37 °C).
For the sequence AUUUAGCAAUAUUACGCACG, the “self-splicing fitness (ln)” value (30 °C) is -1.9 ± 0.28 and the “self-splicing fitness (ln)” value (37 °C) was -0.778 ± 0.2.
Taken in the same sequence, the figures for AUUUAGCAAUAUUACGCGAG were -2.19 ± 0.22 and -0.658 ± 0.2.
Taken in the same sequence, the figures for AUUUAGCAAUAUUACGCGUG were -1.2 ± 0.14 and -0.97 ± 0.14.
For AUUUAGCAAUAUUACGCUCC, the “self-splicing fitness (ln)” value (30 °C) is -1.4 ± 0.47.
For AUUUAGCAAUAUUACGCUCG, the “self-splicing fitness (ln)” value is -0.131 ± 0.1 (30 °C) and 0.715 ± 0.15 (37 °C).
Taken in the same sequence, the figures for AUUUAGCAAUAUUACGCUCU were 0.51 ± 0.27 and 0.235 ± 0.44.
Turning to AUUUAGCAAUAUUACGCUUU, the “self-splicing fitness (ln)” value (30 °C) is -2.7 ± 0.16 and the “self-splicing fitness (ln)” value (37 °C) was -1.2 ± 0.11.
On to AUUUAGCAAUAUUACGGCAG, for which the “self-splicing fitness (ln)” value by setting is: (30 °C) -2.47 ± 0.14; (37 °C) -0.321 ± 0.15.
As to AUUUAGCAAUAUUACGGGCA, the “self-splicing fitness (ln)” value was -1.56 ± 0.19 (30 °C) and -0.452 ± 0.26 (37 °C).
Taken in the same sequence, the figures for AUUUAGCAAUAUUACGGGCU were -2.71 ± 0.19 and -0.78 ± 0.16.
Taken in the same sequence, the figures for AUUUAGCAAUAUUACGGGUG were -3.24 ± 0.14 and -1.57 ± 0.14.
In the case of AUUUAGCAAUAUUACGGUGA, the “self-splicing fitness (ln)” value runs as follows: (30 °C) -1.17 ± 0.27; (37 °C) -1.7 ± 0.19.
For AUUUAGCAAUAUUACGUAUU, the “self-splicing fitness (ln)” value runs as follows: (30 °C) -3 ± 0.16; (37 °C) -1.47 ± 0.19.
Taken in the same sequence, the figures for AUUUAGCAAUAUUACGUCAG were -3.7 ± 0.28 and -0.451 ± 0.2.
Taken in the same sequence, the figures for AUUUAGCAAUAUUACGUCGA were -2.64 ± 0.29 and -0.501 ± 0.19.
Taken in the same sequence, the figures for AUUUAGCAAUAUUACGUCUC were -3.59 ± 0.37 and -2.18 ± 0.3.
Consider AUUUAGCAAUAUUACGUGCG, for which the “self-splicing fitness (ln)” value is, setting by setting: (30 °C) -1.82 ± 0.091; (37 °C) -0.316 ± 0.12.
On to AUUUAGCAAUAUUACGUGGC, for which the “self-splicing fitness (ln)” value (30 °C) is -3.57 ± 0.43 and the “self-splicing fitness (ln)” value (37 °C) is -1.69 ± 0.32.
On to AUUUAGCAAUAUUACGUGUG, for which the “self-splicing fitness (ln)” value (30 °C) was -2.36 ± 0.11 and the “self-splicing fitness (ln)” value (37 °C) is -1.44 ± 0.11.
As for AUUUAGCAAUAUUACGUUCG, the “self-splicing fitness (ln)” value (30 °C) is -1.39 ± 0.11 and the “self-splicing fitness (ln)” value (37 °C) was -0.0499 ± 0.13.
Taken in the same sequence, the figures for AUUUAGCAAUAUUACGUUCU were -0.544 ± 0.085 and -0.0441 ± 0.12.
Taken in the same sequence, the figures for CAAAAGCAAUAUUACGAACA were -1.95 ± 0.14 and -0.613 ± 0.13.
Taken in the same sequence, the figures for CAAAAGCAAUAUUACGAGGU were -3.46 ± 0.15 and -2.91 ± 0.21.
CAAAAGCAAUAUUACGAUCC: the “self-splicing fitness (ln)” value runs as follows: (30 °C) -2.58 ± 0.22; (37 °C) -1.26 ± 0.24.
Consider CAAAAGCAAUAUUACGCAUU, for which the “self-splicing fitness (ln)” value is -3.45 ± 0.18 (30 °C) and -3.29 ± 0.23 (37 °C).
As to CAAAAGCAAUAUUACGCGAC, the “self-splicing fitness (ln)” value runs as follows: (30 °C) -3.52 ± 0.34; (37 °C) -4.08 ± 0.42.
For the sequence CAAAAGCAAUAUUACGCGUC, the “self-splicing fitness (ln)” value is -3.72 ± 0.24 (30 °C) and -1.86 ± 0.18 (37 °C).
Taken in the same sequence, the figures for CAAAAGCAAUAUUACGGAAG were -1.23 ± 0.049 and -0.438 ± 0.071.
For the sequence CAAAAGCAAUAUUACGGAGG, the “self-splicing fitness (ln)” value is, setting by setting: (30 °C) -0.939 ± 0.096; (37 °C) -0.844 ± 0.13.
Taken in the same sequence, the figures for CAAAAGCAAUAUUACGGCCG were 0.257 ± 0.11 and 0.574 ± 0.16.
Taken in the same sequence, the figures for CAAAAGCAAUAUUACGGGAG were -2.05 ± 0.074 and -0.972 ± 0.079.
Taken in the same sequence, the figures for CAAAAGCAAUAUUACGGGGA were -3.26 ± 0.15 and -2.36 ± 0.15.
Turning to CAAAAGCAAUAUUACGUCAC, the “self-splicing fitness (ln)” value (30 °C) is -3.63 ± 0.28 and the “self-splicing fitness (ln)” value (37 °C) is -2.06 ± 0.2.
For CAAAAGCAAUAUUACGUGGC, the “self-splicing fitness (ln)” value by setting is: (30 °C) -3.26 ± 0.13; (37 °C) -2.6 ± 0.2.
Taken in the same sequence, the figures for CAAAAGCAAUAUUACGUGGG were -3.26 ± 0.12 and -2.6 ± 0.12.
For CAAAAGCAAUAUUACGUUCC, the “self-splicing fitness (ln)” value was -2.34 ± 0.33 (30 °C) and -2.17 ± 0.36 (37 °C).
On to CAACAGCAAUAUUACGAAAU, for which the “self-splicing fitness (ln)” value (30 °C) is -2.7 ± 0.12 and the “self-splicing fitness (ln)” value (37 °C) is -2.47 ± 0.2.
As for CAACAGCAAUAUUACGAACA, the “self-splicing fitness (ln)” value was -2.43 ± 0.099 (30 °C) and -1.17 ± 0.075 (37 °C).
Taken in the same sequence, the figures for CAACAGCAAUAUUACGAACU were -3.29 ± 0.15 and -0.988 ± 0.11.
Taken in the same sequence, the figures for CAACAGCAAUAUUACGAAGA were -2.55 ± 0.17 and -2.35 ± 0.17.
Taken in the same sequence, the figures for CAACAGCAAUAUUACGAAUU were -4.19 ± 0.26 and -1.84 ± 0.12.
